From publication PMC3842988 (Molecular Biology of the Cell, 2013)

T1: FLAG-Htt103Q-GFP (Huntingtin with 103Q glutamine stretch, lacking the proline-rich region) (UniProt P42858 1-17)
T1 chain: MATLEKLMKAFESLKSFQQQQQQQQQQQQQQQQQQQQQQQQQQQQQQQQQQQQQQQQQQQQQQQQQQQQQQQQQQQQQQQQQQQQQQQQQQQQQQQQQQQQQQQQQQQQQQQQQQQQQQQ

B1: Sis1 (type II Hsp40) (natural protein)
chain: MVKETKLYDLLGVSPSANEQELKKGYRKAALKYHPDKPTGDTEKFKEISEAFEILNDPQKREIYDQYGLEAARSGGPSFGPGGPGGAGGAGGFPGGAGGFSGGHAFSNEDAFNIFSQFFGGSSPFGGADDSGFSFSSYPSGGGAGMGGMPGGMGGMHGGMGGMPGGFRSASSSPTYPEEETVQVNLPVSLEDLFVGKKKSFKIGRKGPHGASEKTQIDIQLKPGWKAGTKITYKNQGDYNPQTGRRKTLQFVIQEKSHPNFKRDGDDLIYTLPLSFKESLLGFSKTIQTIDGRTLPLSRVQPVQPSQTSTYPGQGMPTPKNPSQRGNLIVKYKVDYPISLNDAQKRAIDENF
B2: Ssa1 (Hsp70) (natural protein)
chain: not shown

Target: T1, FLAG-Htt103Q-GFP (Huntingtin with 103Q …)
Assay: co-IP

Row | Binder | fold change of the co-precipitate, Sti1 elevated against endogenous Sti1 [fold]
1 | B1 | ~4
2 | B2 | > 2
